Source: PMC9834240, “Senescent cells perturb intestinal stem cell differentiation through Ptk7 induced noncanonical Wnt and YAP signaling” (Nature Communications, 2023)
Where “and” joins values, the source holds several entries; their conditions need not be identical. Identical values can stand only once. Entries after “also recorded” stand apart in the source; their conditions may differ.

Tests used:
Format in all cases: cell-based
[1] = test system: cytosolic Ca2+ in mouse intestinal organoids; assay: live Ca2+ imaging of mouse intestinal organoids (GCaMP6f/tdTomato: baselined area under curve, peak number, height, width); settings: live organoids expressing GCaMP6f
Description: Z stacks were acquired every 10 s.
Z-stack images were converted to mean intensity projections and, where required; background was subtracted using a rolling ball algorithm. Segmentation was conducted on a max-projection over-time of the GCaMP6f channel using Cellpose’s pre-trained “Cytoplasm” classifier. Mean intensity traces were measured in each ROI over the time course in both the GCaMP6f and TdTomato channels using scikit-image[138]. Ca^2+ oscillation patterns were calculated in an unsupervised, automated manner using MATLAB. Mean intensity traces were smoothed using a Savitzky-Golay filter and peaks were identified using the “findpeaks” algorithm from the MATLAB Signal Processing Toolbox. Graphs for GCaMP6f/tdTomato fluorescence ratio, peak numbers, peak height, peak width and baselined area under the curve were generated using Python matplotlib and seaborn packages. Statistical analysis was performed using Python SciPy and scikit-post-hoc packages.

[2] = test system: β-Catenin-dependent Wnt signaling (HEK293-TB cells); assay: TOPbrite dual-luciferase Wnt reporter assay; settings: SF.3e
Description: Generation of HEK293 cells stably expressing a TOPbrite firefly luciferase Wnt reporter and pRL-SV40 Renilla luciferase (HEK293-TB) was previously described. HEK293-TB cells were maintained in DMEM/F12 (50:50), supplemented with 10% FBS, 2 mM Glutamax (Gibco, #35050-061) and 40 μg/ml hygromycin (Cellgro, #30-240-CR). For the luciferase reporter assay, HEK293-TB cells were seeded in 96-well plates (Falcon, #353377). The next day, cells were treated with indicated Wnt ligands (50 ng/ml) or CM diluted in culture media. After 24 h, the firefly and Renilla luciferase activity was measured using Dual-Glo Luciferase Assay system (Promega, #E2940) on a Perkin Elmer EnVision multilabel reader. The ratios of firefly luminescence to Renilla luminescence were calculated and normalized to control samples that were not treated.

[3] = test system: YAP in mouse intestinal organoids; assay: whole mount immunostaining for YAP nuclear localization
Description: For whole mount staining, freshly passaged crypts were mixed with Matrigel (Corning, #356231) and mounted to µ-Slide 8 well chamber slides (ibidi, #80826). Media were changed every 2–3 d. 5 days later, organoids in the chamber slides were then fixed in 4% formaldehyde in PBS for 30 min, permeabilized with 0.5% Triton X-100 for 1 h, and incubated in blocking solution (3% normal donkey serum (Sigma-Aldrich, #566460) and 5% BSA (Sigma-Aldrich, #A7979) in 0.1% Triton X-100 + PBS) for 1 h. Primary and secondary antibodies were diluted in blocking solution and added to fixed organoids. Organoids were incubated with primary antibodies overnight at 4 °C and with secondary antibodies for 2 h. ProLong Diamond Antifade Mountant (Invitrogen, # P36970) was added. Images were acquired with a Yokogawa CSU-W1/Zeiss 3i Marianas spinning disk confocal microscopy system. For each organoid, Z-planes up to 100 μm with 1 or 1.5 μm z-steps were acquired to quantify the number of cell types.

[4] = test system: mouse intestinal organoids; assay: RNAseq of intestinal organoids; settings: 2 days
Description: Total RNA was isolated using the RNeasy Plus Mini Kit (Qiagen, #74134) per manufacturer’s instructions. Total RNA was quantified with Qubit RNA HS Assay Kit (Thermo Fisher Scientific, #Q32852) and quality was assessed using RNA ScreenTape on 4200 TapeStation (Agilent Technologies, #5067-5576). cDNA library was generated from 2 ng of total RNA using Smart-Seq V4 Ultra Low Input RNA Kit (Takara, #634894). 150 pg of cDNA was used to make sequencing libraries by Nextera XT DNA Sample Preparation Kit (Illumina, #FC-131-1024). Libraries were quantified with Qubit dsDNA HS Assay Kit (Thermo Fisher Scientific, #Q32851) and the average library size was determined using D1000 ScreenTape on 4200 TapeStation (Agilent Technologies, #5067-5582). Libraries were pooled and sequenced on NovaSeq 6000 (Illumina) to generate 30 millions single-end 50-base pair reads for each sample.
Sequencing reads were filtered and aligned using HTSeqGenie v4.2.2. […] Reads within coding sequences were counted to determine an estimate of gene expression. Read counts were scaled by library size, quantile normalized and precision weights were calculated using the voom R package. […] Differential gene expression was calculated using voom+limma with multiple-hypothesis correction of P values performed using the Benjamini-Hochberg method. […]

[5] = test system: mouse intestinal organoids; assay: inhibition of Wnt5a-induced cystic organoids; settings: individual mice, n = 3
Description: (§1) The jejunum part of the small intestine was removed, flushed with PBS, opened longitudinally, then cut into 0.5 cm pieces. The collected tissues were washed with ice cold PBS multiple times by vortexing and incubated in PBS containing 2.5 mM EDTA for 5 min at 37 °C. After gentle shaking and aspiration, tissues were incubated in PBS containing 5 mM EDTA for 7 min at 37 °C. Tissues were then washed with PBS to remove EDTA and vigorously shaken to release crypts. The released crypts were passed through 70 μm strainers, washed with PBS, and pelleted by centrifugation at 200 × g. Resuspended crypts were mixed with Matrigel (Corning, #356231; Lot#8218007) and pipetted into culture plates. After mixture of crypts and Matrigel solidified, IntestiCult Organoid Growth Medium (Stem Cell Technologies, #06005; Lots #1000021927, #1000034230, #1000037372) was added. Seven days after seeding, organoids were resuspended in dissociation buffer (Gentle Cell Dissociation Reagent; Stem Cell Technologies, #07174), dissociated by pipetting, and seeded for experiments.
(§2) 3-4 biological replicates of organoids from different mice were used per condition. Organoids were cultured in the indicated media, inhibitors, antibodies and/or recombinant proteins for 5 d and fixed in 4% formaldehyde in PBS. Organoids were imaged with a 4× Plan Fluor objective (NA: 0.13, Nikon) on a Nikon Ti-E inverted microscope equipped with a Neo scMOS camera (Andor, Oxford Instruments), a linear encoded automated stage (Applied Scientific Instrumentation), all run by NIS Elements software (Nikon). Organoids were imaged in brightfield and images covering the whole well were stitched and focused into one image projection with an extended depth of focus module (EDF; Nikon). One hundred to 200 organoids per replicate per condition were counted and used for quantification. The number of budding organoids in each condition was normalized by the number of budding organoids in untreated or DMSO treated controls to calculate cystic organoid percentage:1 Cysticorganoidpercentage=100×1−Numberofbuddingorganoidsfromexperiment/Numberofbuddingorganoidsfromcontrol

[6] = test system: mouse intestinal organoids; assay: cystic organoid percentage, organoids treated with recombinant Wnt ligands (Wnt3a, Wnt5a, Wnt11); settings: for percentage of cystic organoids: Fig. 4e, individual mice, n = 3; for cystic organoids (sheet SF.5b): Wnt5a + DMSO, relative to Untreated = 0
Description: as §1, §2

B1: Wnt5a: recombinant protein, R&D Systems 645-WN-010 (protein)
chain: IIGAQPLCSQLAGLSQGQKKLCHLYQDHMQYIGEGAKTGIKECQYQFRHRRWNCSTVDNTSVFGRVMQIGSRETAFTYAVSAAGVVNAMSRACREGELSTCGCSRAARPKDLPRDWLWGGCGDNIDYGYRFAKEFVDARERERIHAKGSYESARILMNLHNNEAGRRTVYNLADVACKCHGVSGSCSLKTCWLQLADFRKVGDALKEKYDSAAAMRLNSRGKLVQVNSRFNSPTTQDLVYIDPSPDYCVRNESTGSLGTQGRLCNKTSEGMDGCELMCCGRGYDQFKTVQTERCHCKFHWCCYVKCKKCTEIVDQFVCK
modifications: biotin
For B1, the “effect on cytosolic Ca2+ levels and oscillations” value [1] was “cytosolic Ca^2+ levels and oscillations increased; also recorded: modulate cytosolic Ca^2+ oscillations”, the “TOPbrite dual-luciferase Wnt reporter activity” value ([2]; replicate 1) was 0.3121 and the “TOPbrite dual-luciferase Wnt reporter activity” value ([2]; replicate 2) was 0.2591. For the same molecule, the “TOPbrite dual-luciferase Wnt reporter activity” value ([2]; replicate 3) was 1.226, the “TOPbrite dual-luciferase Wnt reporter activity” value ([2]; replicate 4) was 1.185 and the “effect on nuclear localization of YAP” value [3] was “increased nuclear localization of YAP”. The “Ptk7-dependent DEGs with TEAD binding motifs” value [4] was “increased expression”, the “percentage of cystic organoids” value ([5]; Fig. 4g, Wnt5a + DMSO) was 46.8995% and 39.0061% and 36.0342% and the “percentage of cystic organoids” value ([5]; Fig. 4i, Wnt5a + IgG) was 49.9365% and 63.1809% and 67.3433%. The “percentage of cystic organoids” value ([6]; Wnt5a 25 ng/ml) was 14.1026% and 5.06% and 6.32%, the “percentage of cystic organoids” value ([6]; Wnt5a 50 ng/ml) was 23.3312% and 3.761% and 10.619% and the “percentage of cystic organoids” value ([6]; Wnt5a 100 ng/ml) was 26.0174% and 31.7553% and 21.762%. For the same molecule, the “percentage of cystic organoids” value ([6]; Wnt5a 250 ng/ml) was 40.092% and 41.2431% and 44.3989%, the “percentage of cystic organoids” value ([6]; Wnt5a 500 ng/ml) was 62.8247% and 56.8452% and 53.6325% and the “cystic organoids (sheet SF.5b)” value ([6]; replicate 1) was 22.713. The “cystic organoids (sheet SF.5b)” value ([6]; replicate 2) was 18.3144, the “cystic organoids (sheet SF.5b)” value ([6]; replicate 3) was 19.185 and the “cystic organoids (sheet SF.5b)” value ([6]; replicate 4) was 14.2949. The “cystic organoid size” value ([6]; Wnt5a compared to Wnt3a) was “larger than those treated with Wnt3a” and the “induction of cystic organoids” value ([6]; recombinant Wnt ligand added to crypt cultures) was “dose-dependently increased organoids with cystic morphology”.
